Paper PMC5025174 (PLoS ONE, 2016)
Positions count from the first letter of the chain named. In names and notes the source's numbering stands.

B1: ICAM34-1 VHH, wild-type (VHH)
VHH: QVKLEESGGGLVQPGGSLRLSCAASGSIFSINDMGWYRQAPGKQRELVARITRDGSAAYEDSVKGRFTISRDNAPNTVFLQMNGLKPEDTAVYYCNAEIITTQTLGRMLGEYWGQGTQVTVSS
notes: anti-human ICAM-1; bears Ala57, Pro75, Gly82b (Kabat); source: E. coli TG1, periplasm (osmotic shock), purified (IMAC)
B2: ICAM11-4 VHH, wild-type (VHH)
VHH: QVQLVESGGGLVQPGGSLRLSCAASGSISSLYVMGWYRQAPGKQRELVADITSSGSIYYVDSLKGRFTISRDNARSTVYLQMNSLEPEDTAVYYCMAHVRQDSGSEYLTYWGQGTQVTVSS
notes: anti-human ICAM-1; bears Ile57 (Kabat); source: E. coli TG1, periplasm (osmotic shock), purified (IMAC)
B3: ICAM11-4 VHH I57T (SpA-engineered) (VHH)
VHH: B2 VHH with I57T
notes: as the VHH of m6 with the stated change; numbers count on: Kabat numbering; also called ICAM11-4 I57T; SpA-engineered ICAM11-4; source: E. coli TG1, periplasm (osmotic shock), purified (IMAC); periplasmic extract for protein A chromatography
B4: IGF1R-4 VHH, wild-type (VHH)
VHH: QVKLEESGGGLVQAGGSLRLSCEVSGGTVSPTAMGWFRQAPGKEREFVGHITWSRGTTRVASSVKDRFTISRDSAKNTVYLQMNSLKSEDTAVYYCAASTFLRILPEESAYTYWGQGTQVTVSS
notes: anti-human IGF1R; bears Val59, Asp65 (Kabat); source: E. coli TG1, periplasm (osmotic shock), purified (IMAC)
B5: IGF1R-5 VHH, wild-type (VHH)
VHH: QVKLEESGGGLVQAGGSLRLSCAASGRTIDNYAMAWSRQAPGKDREFVATIDWGDGGARYANSVKGRFTISRDNAKGTMYLQMNNLEPEDTAVYSCAMARQSRVNLDVARYDYWGQGTQVTVSS
notes: anti-human IGF1R; bears Ala57, Asn82b (Kabat); source: E. coli TG1, periplasm (osmotic shock), purified (IMAC)
B6: IGF1R-4 VHH, humanized (VHH)
VHH: QVQLVESGGGLVQPGGSLRLSCAVSGGTVSPTAMGWFRQAPGKGLEFVGHITWSRGTTRYASSVKGRFTISRDNSKNTVYLQMNSLRAEDTAVYYCAASTFLRILPEESAYTYWGQGTLVTVSS
notes: as the VHH of m18 with FRs reverted to human IGHV3 germline; also called humanized IGF1R-4; source: E. coli TG1, periplasm (osmotic shock), purified (IMAC); periplasmic extract for protein A chromatography
B7: IGF1R-5 VHH, humanized (VHH)
VHH: QVQLVESGGGLVQPGGSLRLSCAASGRTIDNYAMAWSRQAPGKGLEFVATIDWGDGGTRYANSVKGRFTISRDNSKNTMYLQMNSLRAEDTAVYYCAMARQSRVNLDVARYDYWGQGTLVTVSS
notes: as the VHH of m23 with FRs reverted to human IGHV3 germline; also called humanized IGF1R-5; source: E. coli TG1, periplasm (osmotic shock), purified (IMAC); periplasmic extract for protein A chromatography

molecular target: T1, human ICAM-1 ectodomain (Homo sapiens, UniProt P05362); assay: SPR; SEC-purified VHH monomers, 0.5-200 nM, over human ICAM-1 ectodomain amine-coupled to a CM5 chip (1348 RU); 25°C, HBS-EP pH 7.4; 1:1 binding model; details: both partners purified
T1 construct: human ICAM-1, ectodomain; source: bought: R&D Systems
T1 sequence (P05362 28-480): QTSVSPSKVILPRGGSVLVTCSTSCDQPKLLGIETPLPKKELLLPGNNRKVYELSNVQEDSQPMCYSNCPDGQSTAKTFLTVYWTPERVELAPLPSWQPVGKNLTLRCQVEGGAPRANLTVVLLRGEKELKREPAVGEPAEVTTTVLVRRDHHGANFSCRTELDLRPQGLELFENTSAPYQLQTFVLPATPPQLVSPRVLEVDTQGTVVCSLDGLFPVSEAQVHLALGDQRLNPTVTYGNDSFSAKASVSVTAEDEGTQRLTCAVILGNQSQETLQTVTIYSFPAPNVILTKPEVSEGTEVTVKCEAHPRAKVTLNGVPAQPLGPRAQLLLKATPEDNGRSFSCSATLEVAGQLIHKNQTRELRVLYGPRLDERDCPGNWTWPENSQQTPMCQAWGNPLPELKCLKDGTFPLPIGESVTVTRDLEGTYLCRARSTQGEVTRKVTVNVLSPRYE

Compared with B1, B2 is 36-fold lower in Kd: 32 nM for the first, 0.9 nM for the second.

For B3, the Kd was 1.3 nM.

molecular target: T2, human IGF1R ectodomain (Homo sapiens, UniProt P08069); assay: SPR; SEC-purified VHH monomers, 0.1-10 nM, over human IGF1R ectodomain amine-coupled to a CM5 chip (476 RU); 25°C, HBS-EP pH 7.4; 1:1 binding model; details: both partners purified
T2 construct: human IGF1R, ectodomain; source: bought: R&D Systems
T2 sequence (P08069 741-935): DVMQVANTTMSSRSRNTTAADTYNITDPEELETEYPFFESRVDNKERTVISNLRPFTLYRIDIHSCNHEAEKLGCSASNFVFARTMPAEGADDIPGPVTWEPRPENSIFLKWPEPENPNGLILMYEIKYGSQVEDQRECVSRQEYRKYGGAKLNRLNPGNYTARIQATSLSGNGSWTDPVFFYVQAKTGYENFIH

Compared with B4, B5 is 2.7-fold higher in Kd: 0.3 nM for the first, 0.8 nM for the second. The first binds more tightly here.

First: B6
Second: B7
The Kd of the first is 2.2-fold lower: 0.4 nM for the first, 0.9 nM for the second. The first binds more tightly here.
